Drawing on article PMC5016258, this text covers Kd for 1 substance.

The target of experiment [1] is B2R-MasR heteromer on cells co-transfected with B2R-CFP and MasR-YFP (UniProt P30411). In words: radioligand binding.
Experiment [2] deals with Angiotensin-(1-7) Mas receptor fused to enhanced yellow fluorescent protein (UniProt P04201). In words: radioligand binding.
Chain of UniProt P04201 (P04201 whole entry, the tested form may be a part): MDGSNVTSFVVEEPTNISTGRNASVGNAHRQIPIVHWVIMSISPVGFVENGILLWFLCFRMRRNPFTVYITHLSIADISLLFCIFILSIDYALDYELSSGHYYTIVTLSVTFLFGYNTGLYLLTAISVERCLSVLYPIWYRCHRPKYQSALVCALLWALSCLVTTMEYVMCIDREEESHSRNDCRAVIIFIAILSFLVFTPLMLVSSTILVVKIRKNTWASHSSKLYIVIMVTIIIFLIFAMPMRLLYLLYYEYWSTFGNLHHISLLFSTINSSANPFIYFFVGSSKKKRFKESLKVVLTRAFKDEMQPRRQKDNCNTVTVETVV

Chain of UniProt P30411 (P30411 whole entry, chain 1 of 2, the tested form may be a part): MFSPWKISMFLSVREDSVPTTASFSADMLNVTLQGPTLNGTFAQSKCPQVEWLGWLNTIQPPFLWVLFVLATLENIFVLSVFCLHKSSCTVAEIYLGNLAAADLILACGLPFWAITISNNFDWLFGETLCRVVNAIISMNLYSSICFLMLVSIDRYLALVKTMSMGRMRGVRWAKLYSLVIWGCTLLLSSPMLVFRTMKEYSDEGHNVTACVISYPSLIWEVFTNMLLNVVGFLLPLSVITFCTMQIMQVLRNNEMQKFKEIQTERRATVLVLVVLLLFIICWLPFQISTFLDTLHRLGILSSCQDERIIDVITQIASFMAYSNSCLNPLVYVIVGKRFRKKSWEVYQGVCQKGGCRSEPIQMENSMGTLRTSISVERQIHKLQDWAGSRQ
Chain of UniProt P30411 (P04201 whole entry, chain 2 of 2, further chain, the tested form may be a part): as the sequence (P04201 whole entry, the tested form may be a part) above

Take Angiotensin-(1-7) (peptide): the Kd in experiment [1] turned out to be 139 pM; in experiment [2] it was 1150 pM.

One may read the Kd as a measure of binding affinity in units of concentration.
